Results reported in US20190142971A1, “FORMULATION AND DELIVERY OF MODIFIED NUCLEOSIDE, NUCLEOTIDE, AND NUCLEIC ACID COMPOSITIONS” (ModernaTX, Inc., priority 2013, published 2019).

Tested on: non-human primates (cynomolgus monkey)
Test: Example 22: NHP hematology: neutrophils, reticulocytes, HGB, HCT, RBC (Tables 40-44)
Type: in vivo
Description: LNP formulations, shown in Table 33 (above), were administered to non-human primates (NHP) (cynomolgus monkey) (n=2) as intravenous injection (IV). The NHP were administered a single modified mRNA IV dose of 0.5 mg/kg, 0.05 mg/kg or 0.005 mg/kg of G-CSF or EPO in a dose volume of 0.5 mL/kg. The NHPs were bled before dosing with the modified mRNA LNP formulations to determine protein expression in the serum and a baseline complete blood count. After administration with the G-CSF modified mRNA formulation the NHP were bled at 8, 24, 48 and 72 hours to determined protein expression. After administration with the EPO modified mRNA formulation the NHP were bled at 8, 24, 48, 72 hours and 7 days to determined protein expression.
Samples collected from the NHPs after they were administered with G-CSF or EPO modified mRNA formulations were analyzed by ELISA to determine protein expression. Neutrophil and reticulocyte count was also determined pre-dose, 24 hours, 3 days, 7 days, 14 days and 18 days after administration of the modified G-CSF or EPO formulation.

[1] = 0.005 mg/kg, 14/18 days, Female NHP
[2] = 0.005 mg/kg, 14/18 days, Male NHP
[3] = 0.005 mg/kg, 24 hours, Female NHP
[4] = 0.005 mg/kg, 24 hours, Male NHP
[5] = 0.005 mg/kg, 3 days, Female NHP
[6] = 0.005 mg/kg, 7 days, Female NHP
[7] = 0.005 mg/kg, Pre-dose, Female NHP
[8] = 0.005 mg/kg, Pre-dose, Male NHP
[9] = 0.05 mg/kg, 14/18 days, Female NHP
[10] = 0.05 mg/kg, 14/18 days, Male NHP
[11] = 0.05 mg/kg, 24 hours, Female NHP
[12] = 0.05 mg/kg, Pre-dose, Female NHP
[13] = 0.5 mg/kg, 14/18 days, Female NHP
[14] = 0.5 mg/kg, 14/18 days, Male NHP
[15] = 0.5 mg/kg, 24 hours, Female NHP
[16] = 0.5 mg/kg, Pre-dose, Female NHP

B1: EPO: modified mRNA encoding human erythropoietin, SEQ ID NO: 7, Cap1, fully modified with 5-methylcytosine and pseudouridine; LNP NPA-060-1 in Examples 17-22 (nucleic acid)
chain: GGGAAAUAAGAGAGAAAAGAAGAGUAAGAAGAAAUAUAAGAGCCACCAUGGGAGUGCACGAGUGUCCCGCGUGGUUGUGGUUGCUGCUGUCGCUCUUGAGCCUCCCACUGGGACUGCCUGUGCUGGGGGCACCACCCAGAUUGAUCUGCGACUCACGGGUACUUGAGAGGUACCUUCUUGAAGCCAAAGAAGCCGAAAACAUCACAACCGGAUGCGCCGAGCACUGCUCCCUCAAUGAGAACAUUACUGUACCGGAUACAAAGGUCAAUUUCUAUGCAUGGAAGAGAAUGGAAGUAGGACAGCAGGCCGUCGAAGUGUGGCAGGGGCUCGCGCUUUUGUCGGAGGCGGUGUUGCGGGGUCAGGCCCUCCUCGUCAACUCAUCACAGCCGUGGGAGCCCCUCCAACUUCAUGUCGAUAAAGCGGUGUCGGGGCUCCGCAGCUUGACGACGUUGCUUCGGGCUCUGGGCGCACAAAAGGAGGCUAUUUCGCCGCCUGACGCGGCCUCCGCGGCACCCCUCCGAACGAUCACCGCGGACACGUUUAGGAAGCUUUUUAGAGUGUACAGCAAUUUCCUCCGCGGAAAGCUGAAAUUGUAUACUGGUGAAGCGUGUAGGACAGGGGAUCGCUGAUAAGCUGCCUUCUGCGGGGCUUGCCUUCUGGCCAUGCCCUUCUUCUCUCCCUUGCACCUGUACCUCUUGGUCUUUGAAUAAAGCCUGAGUAGGAAG
modifications: Cap1, 5-methylcytosine, pseudouridine
B1 was tested, and the “Female NHP HGB” value (0.005 mg/kg IV, 14/18 days) was 129 g/L, the “Female NHP Neutrophils” value (0.005 mg/kg IV, 14/18 days) was 2.54 10^9/L and the “Male NHP HGB” value (0.005 mg/kg IV, 14/18 days) was 128 g/L. The “Male NHP Neutrophils” value (0.005 mg/kg IV, 14/18 days) was 1.52 10^9/L, the “Female NHP HGB” value (0.005 mg/kg IV, 24 hours) was 128 g/L and the “Female NHP Neutrophils” value (0.005 mg/kg IV, 24 hours) was 2.59 10^9/L. For the same molecule, the “Male NHP HGB” value (0.005 mg/kg IV, 24 hours) was 122 g/L, the “Male NHP Neutrophils” value (0.005 mg/kg IV, 24 hours) was 5.37 10^9/L and the “Female NHP HGB” value (0.005 mg/kg IV, 3 days) was 130 g/L. The “Female NHP Neutrophils” value (0.005 mg/kg IV, 3 days) was 2.83 10^9/L, the “Male NHP HGB” value (0.005 mg/kg IV, 3 days) was 125 g/L and the “Male NHP Neutrophils” value (0.005 mg/kg IV, 3 days) was 6.08 10^9/L. The “Female NHP HGB” value (0.005 mg/kg IV, 7 days) was 127 g/L, the “Female NHP Neutrophils” value (0.005 mg/kg IV, 7 days) was 2.23 10^9/L and the “Male NHP HGB” value (0.005 mg/kg IV, 7 days) was 119 g/L. The “Male NHP Neutrophils” value (0.005 mg/kg IV, 7 days) was 3.51 10^9/L, the “Female NHP HGB” value (0.005 mg/kg IV, Pre-dose) was 136 g/L and the “Female NHP Neutrophils” value (0.005 mg/kg IV, Pre-dose) was 5.96 10^9/L. For the same molecule, the “Male NHP HGB” value (0.005 mg/kg IV, Pre-dose) was 132 g/L, the “Male NHP Neutrophils” value (0.005 mg/kg IV, Pre-dose) was 5.46 10^9/L and the HCT [1] was 0.42 L/L. The RBC [1] was 5.36 10^12/L, the HCT [2] was 0.42 L/L and the RBC [2] was 5.67 10^12/L. The HCT [3] was 0.43 L/L, the RBC [3] was 5.35 10^12/L and the HCT [4] was 0.42 L/L. For the same molecule, the RBC [4] was 5.63 10^12/L, the HCT [5] was 0.42 L/L and the RBC [5] was 5.42 10^12/L. For the same molecule, the HCT (0.005 mg/kg, 3 days, Male NHP) was 0.44 L/L, the RBC (0.005 mg/kg, 3 days, Male NHP) was 5.77 10^12/L and the HCT [6] was 0.42 L/L. The RBC [6] was 5.35 10^12/L, the HCT (0.005 mg/kg, 7 days, Male NHP) was 0.41 L/L and the RBC (0.005 mg/kg, 7 days, Male NHP) was 5.49 10^12/L. The HCT [7] was 0.45 L/L, the RBC [7] was 5.72 10^12/L and the HCT [8] was 0.48 L/L. The RBC [8] was 6.15 10^12/L, the “Female NHP HGB” value (0.05 mg/kg IV, 14/18 days) was 129 g/L and the “Female NHP Neutrophils” value (0.05 mg/kg IV, 14/18 days) was 1.27 10^9/L. The “Male NHP HGB” value (0.05 mg/kg IV, 14/18 days) was 133 g/L, the “Male NHP Neutrophils” value (0.05 mg/kg IV, 14/18 days) was 1.53 10^9/L and the “Female NHP HGB” value (0.05 mg/kg IV, 24 hours) was 116 g/L. For the same molecule, the “Female NHP Neutrophils” value (0.05 mg/kg IV, 24 hours) was 2.63 10^9/L, the “Male NHP HGB” value (0.05 mg/kg IV, 24 hours) was 123 g/L and the “Male NHP Neutrophils” value (0.05 mg/kg IV, 24 hours) was 2.51 10^9/L. For the same molecule, the “Female NHP HGB” value (0.05 mg/kg IV, 3 days) was 120 g/L, the “Female NHP Neutrophils” value (0.05 mg/kg IV, 3 days) was 4.08 10^9/L and the “Male NHP HGB” value (0.05 mg/kg IV, 3 days) was 116 g/L. For the same molecule, the “Male NHP Neutrophils” value (0.05 mg/kg IV, 3 days) was 1.73 10^9/L, the “Female NHP HGB” value (0.05 mg/kg IV, 7 days) was 121 g/L and the “Female NHP Neutrophils” value (0.05 mg/kg IV, 7 days) was 2.77 10^9/L. For the same molecule, the “Male NHP HGB” value (0.05 mg/kg IV, 7 days) was 126 g/L, the “Male NHP Neutrophils” value (0.05 mg/kg IV, 7 days) was 1.23 10^9/L and the “Female NHP HGB” value (0.05 mg/kg IV, Pre-dose) was 133 g/L. The “Female NHP Neutrophils” value (0.05 mg/kg IV, Pre-dose) was 2.15 10^9/L, the “Male NHP HGB” value (0.05 mg/kg IV, Pre-dose) was 133 g/L and the “Male NHP Neutrophils” value (0.05 mg/kg IV, Pre-dose) was 0.97 10^9/L. The HCT [9] was 0.43 L/L, the RBC [9] was 5.57 10^12/L and the HCT [10] was 0.46 L/L. The RBC [10] was 5.57 10^12/L, the HCT [11] was 0.39 L/L and the RBC [11] was 5.18 10^12/L. For the same molecule, the HCT (0.05 mg/kg, 24 hours, Male NHP) was 0.43 L/L, the RBC (0.05 mg/kg, 24 hours, Male NHP) was 5.25 10^12/L and the HCT (0.05 mg/kg, 3 days, Female NHP) was 0.4 L/L. For the same molecule, the RBC (0.05 mg/kg, 3 days, Female NHP) was 5.16 10^12/L, the HCT (0.05 mg/kg, 3 days, Male NHP) was 0.38 L/L and the RBC (0.05 mg/kg, 3 days, Male NHP) was 4.81 10^12/L. The HCT (0.05 mg/kg, 7 days, Female NHP) was 0.41 L/L, the RBC (0.05 mg/kg, 7 days, Female NHP) was 5.31 10^12/L and the HCT (0.05 mg/kg, 7 days, Male NHP) was 0.45 L/L. For the same molecule, the RBC (0.05 mg/kg, 7 days, Male NHP) was 5.37 10^12/L, the HCT [12] was 0.43 L/L and the RBC [12] was 5.84 10^12/L. The HCT (0.05 mg/kg, Pre-dose, Male NHP) was 0.45 L/L, the RBC (0.05 mg/kg, Pre-dose, Male NHP) was 5.57 10^12/L and the “Female NHP HGB” value (0.5 mg/kg IV, 14/18 days) was 133 g/L. The “Female NHP Neutrophils” value (0.5 mg/kg IV, 14/18 days) was 2.36 10^9/L, the “Male NHP HGB” value (0.5 mg/kg IV, 14/18 days) was 146 g/L and the “Male NHP Neutrophils” value (0.5 mg/kg IV, 14/18 days) was 7.16 10^9/L. For the same molecule, the “Female NHP HGB” value (0.5 mg/kg IV, 24 hours) was 108 g/L, the “Female NHP Neutrophils” value (0.5 mg/kg IV, 24 hours) was 11.85 10^9/L and the “Male NHP HGB” value (0.5 mg/kg IV, 24 hours) was 127 g/L. For the same molecule, the “Male NHP Neutrophils” value (0.5 mg/kg IV, 24 hours) was 7.5 10^9/L, the “Female NHP HGB” value (0.5 mg/kg IV, 3 days) was 120 g/L and the “Female NHP Neutrophils” value (0.5 mg/kg IV, 3 days) was 5.22 10^9/L. For the same molecule, the “Male NHP HGB” value (0.5 mg/kg IV, 3 days) was 126 g/L, the “Male NHP Neutrophils” value (0.5 mg/kg IV, 3 days) was 11.07 10^9/L and the “Female NHP HGB” value (0.5 mg/kg IV, 7 days) was 134 g/L. For the same molecule, the “Female NHP Neutrophils” value (0.5 mg/kg IV, 7 days) was 2.85 10^9/L, the “Male NHP HGB” value (0.5 mg/kg IV, 7 days) was 140 g/L and the “Male NHP Neutrophils” value (0.5 mg/kg IV, 7 days) was 11.8 10^9/L. For the same molecule, the “Female NHP HGB” value (0.5 mg/kg IV, Pre-dose) was 123 g/L, the “Female NHP Neutrophils” value (0.5 mg/kg IV, Pre-dose) was 1.82 10^9/L and the “Male NHP HGB” value (0.5 mg/kg IV, Pre-dose) was 134 g/L. For the same molecule, the “Male NHP Neutrophils” value (0.5 mg/kg IV, Pre-dose) was 9.72 10^9/L, the HCT [13] was 0.46 L/L and the RBC [13] was 5.72 10^12/L. The HCT [14] was 0.48 L/L, the RBC [14] was 5.83 10^12/L and the HCT [15] was 0.36 L/L. The RBC [15] was 4.69 10^12/L, the HCT (0.5 mg/kg, 24 hours, Male NHP) was 0.4 L/L and the RBC (0.5 mg/kg, 24 hours, Male NHP) was 5.12 10^12/L. The HCT (0.5 mg/kg, 3 days, Female NHP) was 0.39 L/L, the RBC (0.5 mg/kg, 3 days, Female NHP) was 5.15 10^12/L and the HCT (0.5 mg/kg, 3 days, Male NHP) was 0.41 L/L. The RBC (0.5 mg/kg, 3 days, Male NHP) was 5.13 10^12/L, the HCT (0.5 mg/kg, 7 days, Female NHP) was 0.45 L/L and the RBC (0.5 mg/kg, 7 days, Female NHP) was 5.68 10^12/L. The HCT (0.5 mg/kg, 7 days, Male NHP) was 0.45 L/L, the RBC (0.5 mg/kg, 7 days, Male NHP) was 5.55 10^12/L and the HCT [16] was 0.4 L/L. The RBC [16] was 5.26 10^12/L, the HCT (0.5 mg/kg, Pre-dose, Male NHP) was 0.44 L/L and the RBC (0.5 mg/kg, Pre-dose, Male NHP) was 5.43 10^12/L. For the same molecule, the “reticulocytes 3 days to 14/18 days after dosing relative to 24 hours after dosing” value (all dose groups) was “increase in reticulocytes” and the “effect on hemoglobin (HGB), hematocrit (HCT) and red blood cell (RBC) count” value (cynomolgus monkey, in vivo) was “had an effect”.
